Measurements reported in patent CN107286237A.

Columns and labels:
Test in all cases: SPR, BiaCore X-100, TRN1007 captured by goat anti-human IgG on CM5 chip, E2-core as analyte
[1] = molecular target: HCV包膜糖蛋白 HCV-E2-core 基因型2a (Hepatitis C virus genotype 2a)
[2] = molecular target: HCV包膜糖蛋白 HCV-E2-core 基因型4a (Hepatitis C virus genotype 4a)
[3] = molecular target: HCV包膜糖蛋白 HCV-E2-core 基因型6a (Hepatitis C virus genotype 6a)
[4] = molecular target: HCV包膜糖蛋白 HCV-E2-core 基因型7a (Hepatitis C virus genotype 7a)

B1: 全人源抗HCV单克隆中和抗体TRN1007 (antibody, V domains shown)
VH: EVQLVQSGAEVKKPGSSVKVSCKASGGSFRSYGFSWVRQAPGQGLEWMGRIIPAANFADYAPKFQDRVTISADKSTSTAYMELKSLRSDDTAVYYCARDQDLSGELTALYYYHGLDVWGQGTTVTVSS
VL: EIVLTQSPGTLSLSPGQRVTLSCRASQSVSNNYIAWYQQKPGQAPRLLISGASSRATGIPDRFSGTGSGTDFTLAISRLEPEDFAVYYCQQYGDSFWTFGQGTKVEIK
Kd [1]: 1.07 pM | koff [1]: 8.63e-08 s⁻¹ | kon [1]: 80500 M⁻¹ s⁻¹ | Kd [2]: 1.59 pM | koff [2]: 7.17e-08 s⁻¹ | kon [2]: 45100 M⁻¹ s⁻¹ | Kd [3]: 179 pM | koff [3]: 5.36e-07 s⁻¹ | kon [3]: 2990 M⁻¹ s⁻¹ | Kd [4]: 17.8 pM | koff [4]: 1.68e-06 s⁻¹ | kon [4]: 94400 M⁻¹ s⁻¹
